This assay deals with T1, His-tagged SAR1A^(Δ2–17, H79G) (human, UniProt Q9NR31 1-198, Δ2–17 | H79G).
T1 construct: SAR1A, human, GTPase-defective H79G, N-terminal helix (residues 2-17) deleted; also called SAR1A^(Δ2–17, H79G)-His; His-tagged SAR1A(H79G) deleted of its N-terminal helix; source: purified, as described previously
Nature of the assay: pull-down; peptide-binding assay: polyR peptide coupled through its C-terminal cysteine to thiopyridone-Sepharose 6B beads (5 nmol peptide); 2 μg purified His-tagged SAR1A preincubated with 500 μM GTPγS; HK buffer (100 mM KCl, 20 mM Hepes, pH 7.2), 1 h at 4 °C; immunoblot. The note with it: both partners purified.

No end group written: not given here.

T1 sequence (Q9NR31 other isoform, or with tags, fused parts or gaps Δ2–17 | H79G | Δ2–17 | H79G | H79G H79G): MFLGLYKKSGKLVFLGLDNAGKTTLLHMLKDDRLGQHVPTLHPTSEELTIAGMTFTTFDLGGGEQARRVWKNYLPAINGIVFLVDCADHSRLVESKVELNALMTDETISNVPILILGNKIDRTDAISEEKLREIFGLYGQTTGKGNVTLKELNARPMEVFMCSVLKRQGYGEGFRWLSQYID

B1: synthetic polyR peptide of EGFR (RRRHIVRKRTLRRC) (peptide)
peptide: RRRHIVRKRTLRRC(Sepharose 6B)
notes: EGFR, juxtamembrane region of the cytosolic domain, amino acid number 669-681; added C-terminal cysteine residue used for coupling to the beads; also called polyR peptides; source: synthetic peptide, bought: GenScript
B1: the binding result is recorded as “binds”.

The values are drawn from paper PMC12221741, “WT EGFR and the oncogenic mutant EGFR (L858R) employ distinct mechanisms for export from the endoplasmic reticulum, a process critical for their activation” (The Journal of Biological Chemistry, 2025).
